Laboratory results: patent US20200157198A1 (POPULAS BIOPHARMACEUTICAL WUHAN, published 2020)

How the values were obtained:
[1] = biological target: polypeptide C8079BB030-1 (…); test: indirect ELISA on coated peptide (1 ug/ml); unimmunized serum 1:1,000; column No. 1958
[2] = biological target: polypeptide C8079BB030-1 (…); test: indirect ELISA on coated peptide (1 ug/ml); unimmunized serum 1:1,000; column No. 1956
[3] = biological target: polypeptide C8079BB030-1 (…); test: indirect ELISA on coated peptide (1 ug/ml); unimmunized serum 1:1,000; column No. 1957
[4] = biological target: polypeptide C8079BB030-1 (…); test: indirect ELISA on coated peptide (1 ug/ml); unimmunized serum 1:1,000; column No. 1955
[5] = biological target: polypeptide C8079BB030-1 (…); test: indirect ELISA on coated peptide (1 ug/ml); unimmunized serum 1:1,000; column No. 1954
[6] = biological target: T1, HA-tagged human Nav1.9 expressed in ND7/23 cells (human, UniProt Q9UI33 1-1791, limits assumed); test: Western blot of lysate of ND7/23 cells transfected with HA-hNav1.9; antibody 1:300
T1 construct: Assayed as SDS-PAGE-separated lysate of transfected ND7/23 cells (Western blot); also called HA-hNav1.9; human Nav1.9-HA; not shown: HA tag
T1 sequence (Q9UI33 whole entry): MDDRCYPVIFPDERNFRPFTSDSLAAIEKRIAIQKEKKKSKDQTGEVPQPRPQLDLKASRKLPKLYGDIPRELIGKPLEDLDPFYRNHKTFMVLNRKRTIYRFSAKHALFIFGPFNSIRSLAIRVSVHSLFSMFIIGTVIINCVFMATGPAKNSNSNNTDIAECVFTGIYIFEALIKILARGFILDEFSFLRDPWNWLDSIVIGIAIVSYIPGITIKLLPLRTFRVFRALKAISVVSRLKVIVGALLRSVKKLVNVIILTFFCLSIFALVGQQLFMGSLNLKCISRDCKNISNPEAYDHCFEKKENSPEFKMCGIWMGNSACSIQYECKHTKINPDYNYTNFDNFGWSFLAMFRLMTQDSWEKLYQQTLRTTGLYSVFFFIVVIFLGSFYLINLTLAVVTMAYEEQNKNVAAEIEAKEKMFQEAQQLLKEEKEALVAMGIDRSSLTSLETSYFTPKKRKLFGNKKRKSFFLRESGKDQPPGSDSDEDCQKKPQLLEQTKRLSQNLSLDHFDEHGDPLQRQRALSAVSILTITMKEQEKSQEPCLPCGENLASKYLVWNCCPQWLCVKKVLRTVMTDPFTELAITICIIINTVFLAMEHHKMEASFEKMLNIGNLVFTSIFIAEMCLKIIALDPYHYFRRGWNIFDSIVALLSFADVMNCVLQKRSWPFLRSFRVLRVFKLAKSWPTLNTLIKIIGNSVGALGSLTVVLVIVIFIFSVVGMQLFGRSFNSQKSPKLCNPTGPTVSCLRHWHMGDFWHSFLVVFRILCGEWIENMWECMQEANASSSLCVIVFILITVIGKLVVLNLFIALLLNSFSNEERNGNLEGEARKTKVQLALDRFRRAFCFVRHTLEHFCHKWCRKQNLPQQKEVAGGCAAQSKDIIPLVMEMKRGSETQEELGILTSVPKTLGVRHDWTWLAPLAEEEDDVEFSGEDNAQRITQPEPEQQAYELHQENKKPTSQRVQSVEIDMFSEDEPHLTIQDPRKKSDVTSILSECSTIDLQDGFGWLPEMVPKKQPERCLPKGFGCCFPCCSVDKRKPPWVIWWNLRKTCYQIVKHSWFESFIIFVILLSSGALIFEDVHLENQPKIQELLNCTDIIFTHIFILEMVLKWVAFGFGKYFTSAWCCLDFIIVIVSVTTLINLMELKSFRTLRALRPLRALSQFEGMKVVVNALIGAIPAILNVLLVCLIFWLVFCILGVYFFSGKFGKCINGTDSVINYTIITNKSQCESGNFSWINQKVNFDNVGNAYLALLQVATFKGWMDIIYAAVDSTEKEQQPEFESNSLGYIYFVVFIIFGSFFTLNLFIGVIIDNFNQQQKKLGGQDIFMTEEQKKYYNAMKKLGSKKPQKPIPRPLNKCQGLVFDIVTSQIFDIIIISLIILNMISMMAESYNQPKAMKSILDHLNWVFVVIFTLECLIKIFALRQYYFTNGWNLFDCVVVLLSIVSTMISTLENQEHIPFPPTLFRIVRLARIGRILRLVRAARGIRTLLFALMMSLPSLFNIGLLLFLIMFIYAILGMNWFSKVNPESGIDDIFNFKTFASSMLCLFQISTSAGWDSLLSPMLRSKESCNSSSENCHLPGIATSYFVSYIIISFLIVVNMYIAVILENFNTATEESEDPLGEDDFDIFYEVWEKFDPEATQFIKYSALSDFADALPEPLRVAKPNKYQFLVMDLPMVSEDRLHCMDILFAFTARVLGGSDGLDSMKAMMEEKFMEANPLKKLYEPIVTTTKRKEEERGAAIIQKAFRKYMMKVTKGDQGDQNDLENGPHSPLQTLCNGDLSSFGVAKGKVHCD
Description: 4. The cell lysate was centrifuged at 12000 rpm for 10 minutes at 4° C. to collect the cell lysis supernatant.
6. After […], the cells were incubated with HA tag (1:2000) antibody and 5A2F9-4 (1:300) antibody for 1 hour at room temperature.
8. A digoxigenin-labeled anti-mouse antibody (1:20000) was added and incubated for 1 hour at room temperature;

| OD value (450 nm) [1] [OD450] | OD value (450 nm) [2] [OD450] | OD value (450 nm) [3] [OD450] | OD value (450 nm) [4] [OD450] | OD value (450 nm) [5] [OD450] | binding result [6] | Molecule |
| --- | --- | --- | --- | --- | --- | --- |
| 0.104 | 0.086 | 0.088 | 0.066 | 0.072 | – | negative control of unimmunized serum |
| – | – | – | – | – | binds | 5A2F9-4 antibody (antibody, V domains shown, Mouse hybridoma monoclonal antibody) VH: QVQLQQPGAELVKPGASVKLSCKASGYTFTSYWMHWVKQRPGQGLEWIGEINPRNGRINQNEKFKSKATLTVAKSSSTAYMQLSSLTSEDSAVYYCSRGGGSSAEGGYWGQGTTLTVSS VL: DVLMTQTPLSLPVSLGDQASISCRSSQSIVHSNGNTYLDWYLQKPGQSPKLLIYKVFNRLSGVPDRFSGSGSGTDFTLKISRVEAEDLGVYYCFQGSHVPLTFGAGTKLELQ |
